Consider two substances from PMC2213500 (The Journal of Experimental Medicine, 2000).

Test [1] has as its target soluble wild-type HLA-DR1 (empty, no added peptide) (human). The experiment in a line: intrinsic tryptophan fluorescence.
The target of a further test is wtDR1 (Homo sapiens, UniProt P01903+P01911, A100R/D57E/F55L/F60I/F76Y/I96L/L162R/M171V/P40L/Q125E/R42F/V115G/Y59C). It counts as binding.

Chain of soluble HLA-DM (P28067 27-233): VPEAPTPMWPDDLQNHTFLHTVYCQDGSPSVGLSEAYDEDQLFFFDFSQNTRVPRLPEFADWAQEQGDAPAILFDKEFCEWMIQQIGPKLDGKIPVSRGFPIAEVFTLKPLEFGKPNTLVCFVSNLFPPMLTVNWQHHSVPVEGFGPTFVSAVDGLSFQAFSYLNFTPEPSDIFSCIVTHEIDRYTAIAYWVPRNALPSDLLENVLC
Chain of soluble HLA-DM (P28068 19-218): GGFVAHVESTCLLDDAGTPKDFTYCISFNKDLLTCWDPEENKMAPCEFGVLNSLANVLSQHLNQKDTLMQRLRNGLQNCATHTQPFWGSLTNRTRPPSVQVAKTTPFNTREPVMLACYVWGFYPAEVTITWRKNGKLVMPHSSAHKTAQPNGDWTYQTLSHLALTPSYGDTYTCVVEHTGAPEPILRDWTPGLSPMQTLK

As for “soluble HLA-DM (from UniProt P28067;P28068) (complex)”, the increase of tryptophan fluorescence on mixing in test [1] was 10 to 12%. CLSPFPFDL: at wtDR1, the “DR1 binding of control peptide” value is “non–DR1-binding”.
